First the molecules themselves.
B1: glmS ribozyme (parent)
chain: AUAAAAGCGCCAGAACUACAGAAAUGUAGUUGACGAGGAGGAGGUUUAUCGAAUUUUCGGCGGAUGCCUCCAAA

Conditions in all cases: with glucosamine-6-phosphate
Data set [1] covers variants of B1. The data set is described as follows: self-cleavage kobs at 40 uM GlcN6P; higher = faster cleavage; RNA array. The procedure, abridged:
(§1)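 The measurements used barcoded ribozyme variants on sequenced MiSeq chips, transcribed in situ by E. coli RNA polymerase and tracked at 37 °C with a hybridised Cy3 probe. Glucosamine-6-phosphate, 40 μM to 10 mM in HEPES/KCl/Mg(OAc)2 buffer, was flowed in while tiles were imaged over ~14 h. Baseline-normalised signals, also normalised to non-cleaving reference variants, gave per-tile medians that were fit to one- or two-exponential decays for kobs. kcat and KM resulted from weighted Michaelis–Menten fits across concentrations.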

Variants of B1 are the subject of data set [2]. The data set is described as follows: self-cleavage kobs at 160 uM GlcN6P; higher = faster cleavage; RNA array. In short, it runs like this: as §1
In data set [3] the parent is B1. The data set is described as follows: self-cleavage kobs at 640 uM GlcN6P; higher = faster cleavage; RNA array. The procedure, abridged: as §1
Variants of B1 are the subject of data set [4]. The data set is described as follows: self-cleavage kobs at 2500 uM GlcN6P; higher = faster cleavage; RNA array. In short, it runs like this:
as §1

Data set [5] covers variants of B1. The data set is described as follows: self-cleavage kobs at 10000 uM GlcN6P; higher = faster cleavage; RNA array. In short, it runs like this:
as §1

± gives the standard error. Fewer inactive variants are shown than the library holds.

In the case of A36C G44A, in the data set with glucosamine-6-phosphate [1], the “self-cleavage kobs at 40 uM GlcN6P” value was less than 1e-05 s⁻¹. The “self-cleavage kobs at 160 uM GlcN6P” value with glucosamine-6-phosphate [2] was less than 1e-05 s⁻¹. For the same variant, the “self-cleavage kobs at 640 uM GlcN6P” value with glucosamine-6-phosphate [3] is less than 1e-05 s⁻¹. In the data set with glucosamine-6-phosphate [4], the “self-cleavage kobs at 2500 uM GlcN6P” value was less than 1e-05 s⁻¹. In the data set with glucosamine-6-phosphate [5], the “self-cleavage kobs at 10000 uM GlcN6P” value was less than 1e-05 s⁻¹.
Turning to G7A A33C U57C G63A, the “self-cleavage kobs at 40 uM GlcN6P” value in the data set with glucosamine-6-phosphate [1] was less than 1e-05 s⁻¹.
With A6C G37C A39G G40U G41U, the “self-cleavage kobs at 40 uM GlcN6P” value with glucosamine-6-phosphate [1] is less than 1e-05 s⁻¹. Moreover, the “self-cleavage kobs at 160 uM GlcN6P” value in the data set with glucosamine-6-phosphate [2] is less than 1e-05 s⁻¹. In addition, in the data set with glucosamine-6-phosphate [3], the “self-cleavage kobs at 640 uM GlcN6P” value was less than 1e-05 s⁻¹. Moreover, the “self-cleavage kobs at 2500 uM GlcN6P” value with glucosamine-6-phosphate [4] was less than 1e-05 s⁻¹.
As to C10U C16U G38A A48G, the “self-cleavage kobs at 40 uM GlcN6P” value with glucosamine-6-phosphate [1] is less than 1e-05 s⁻¹. For the same variant, in the data set with glucosamine-6-phosphate [5], the “self-cleavage kobs at 10000 uM GlcN6P” value is less than 1e-05 s⁻¹.
C10A U47C U54C G66U: the “self-cleavage kobs at 40 uM GlcN6P” value in the data set with glucosamine-6-phosphate [1] is less than 1e-05 s⁻¹. The “self-cleavage kobs at 10000 uM GlcN6P” value with glucosamine-6-phosphate [5] was less than 1e-05 s⁻¹.
On to G29U U45A C61A, for which, in the data set with glucosamine-6-phosphate [1], the “self-cleavage kobs at 40 uM GlcN6P” value is less than 1e-05 s⁻¹.
Consider C10G A14C A36G U55A C71U, for which the “self-cleavage kobs at 40 uM GlcN6P” value in the data set with glucosamine-6-phosphate [1] was less than 1e-05 s⁻¹.
Take C34G G63C: in the data set with glucosamine-6-phosphate [1], the “self-cleavage kobs at 40 uM GlcN6P” value is less than 1e-05 s⁻¹. For the same variant, the “self-cleavage kobs at 160 uM GlcN6P” value with glucosamine-6-phosphate [2] was less than 1e-05 s⁻¹. The “self-cleavage kobs at 640 uM GlcN6P” value in the data set with glucosamine-6-phosphate [3] was less than 1e-05 s⁻¹. Besides, the “self-cleavage kobs at 10000 uM GlcN6P” value with glucosamine-6-phosphate [5] is less than 1e-05 s⁻¹.
With C10A G60A, the “self-cleavage kobs at 40 uM GlcN6P” value with glucosamine-6-phosphate [1] is less than 1e-05 s⁻¹. For the same variant, in the data set with glucosamine-6-phosphate [2], the “self-cleavage kobs at 160 uM GlcN6P” value was less than 1e-05 s⁻¹. For the same variant, in the data set with glucosamine-6-phosphate [3], the “self-cleavage kobs at 640 uM GlcN6P” value is less than 1e-05 s⁻¹. Besides, the “self-cleavage kobs at 2500 uM GlcN6P” value in the data set with glucosamine-6-phosphate [4] was less than 1e-05 s⁻¹.
For C8A G44C C70A, the “self-cleavage kobs at 40 uM GlcN6P” value with glucosamine-6-phosphate [1] was less than 1e-05 s⁻¹. Further, the “self-cleavage kobs at 10000 uM GlcN6P” value in the data set with glucosamine-6-phosphate [5] was less than 1e-05 s⁻¹.
With G41C G43C, in the data set with glucosamine-6-phosphate [1], the “self-cleavage kobs at 40 uM GlcN6P” value was less than 1e-05 s⁻¹. Besides, the “self-cleavage kobs at 160 uM GlcN6P” value with glucosamine-6-phosphate [2] was less than 1e-05 s⁻¹. Also, the “self-cleavage kobs at 640 uM GlcN6P” value with glucosamine-6-phosphate [3] is less than 1e-05 s⁻¹. Besides, in the data set with glucosamine-6-phosphate [5], the “self-cleavage kobs at 10000 uM GlcN6P” value was less than 1e-05 s⁻¹.
Turning to C8U A33G, in the data set with glucosamine-6-phosphate [1], the “self-cleavage kobs at 40 uM GlcN6P” value is less than 1e-05 s⁻¹. In the data set with glucosamine-6-phosphate [2], the “self-cleavage kobs at 160 uM GlcN6P” value was less than 1e-05 s⁻¹. Further, the “self-cleavage kobs at 640 uM GlcN6P” value with glucosamine-6-phosphate [3] is less than 1e-05 s⁻¹. In addition, the “self-cleavage kobs at 10000 uM GlcN6P” value with glucosamine-6-phosphate [5] is less than 1e-05 s⁻¹.
Turning to C10U U31C C34U, in the data set with glucosamine-6-phosphate [1], the “self-cleavage kobs at 40 uM GlcN6P” value was less than 1e-05 s⁻¹.
Regarding G44C U45C, the “self-cleavage kobs at 40 uM GlcN6P” value with glucosamine-6-phosphate [1] was less than 1e-05 s⁻¹. The “self-cleavage kobs at 160 uM GlcN6P” value in the data set with glucosamine-6-phosphate [2] is less than 1e-05 s⁻¹.
For C34A G44A, the “self-cleavage kobs at 40 uM GlcN6P” value in the data set with glucosamine-6-phosphate [1] was less than 1e-05 s⁻¹. The “self-cleavage kobs at 160 uM GlcN6P” value with glucosamine-6-phosphate [2] was less than 1e-05 s⁻¹. Besides, the “self-cleavage kobs at 640 uM GlcN6P” value with glucosamine-6-phosphate [3] was less than 1e-05 s⁻¹. Moreover, the “self-cleavage kobs at 2500 uM GlcN6P” value with glucosamine-6-phosphate [4] is less than 1e-05 s⁻¹. Besides, the “self-cleavage kobs at 10000 uM GlcN6P” value with glucosamine-6-phosphate [5] is less than 1e-05 s⁻¹.
In the case of C10U G13A C68A, the “self-cleavage kobs at 40 uM GlcN6P” value in the data set with glucosamine-6-phosphate [1] is less than 1e-05 s⁻¹.
Regarding C16U C67U, in the data set with glucosamine-6-phosphate [1], the “self-cleavage kobs at 40 uM GlcN6P” value was found to be 0.000314 ± 3.3e-05 s⁻¹. In the data set with glucosamine-6-phosphate [2], the “self-cleavage kobs at 160 uM GlcN6P” value was found to be 0.000412 ± 0.00014 s⁻¹. The “self-cleavage kobs at 640 uM GlcN6P” value in the data set with glucosamine-6-phosphate [3] came out at 0.00186 ± 0.00024 s⁻¹. The “self-cleavage kobs at 2500 uM GlcN6P” value with glucosamine-6-phosphate [4] is 0.00294 ± 0.00071 s⁻¹. Also, the “self-cleavage kobs at 10000 uM GlcN6P” value with glucosamine-6-phosphate [5] is 0.0126 ± 0.0021 s⁻¹.
In the case of C16U G59C, the “self-cleavage kobs at 40 uM GlcN6P” value in the data set with glucosamine-6-phosphate [1] is less than 1e-05 s⁻¹. The “self-cleavage kobs at 640 uM GlcN6P” value with glucosamine-6-phosphate [3] is less than 1e-05 s⁻¹. Further, in the data set with glucosamine-6-phosphate [5], the “self-cleavage kobs at 10000 uM GlcN6P” value was less than 1e-05 s⁻¹.
With G37C G41U G63C, the “self-cleavage kobs at 40 uM GlcN6P” value with glucosamine-6-phosphate [1] was less than 1e-05 s⁻¹.
As to G35A U56G, the “self-cleavage kobs at 40 uM GlcN6P” value with glucosamine-6-phosphate [1] was less than 1e-05 s⁻¹. In addition, the “self-cleavage kobs at 640 uM GlcN6P” value in the data set with glucosamine-6-phosphate [3] is less than 1e-05 s⁻¹. In addition, the “self-cleavage kobs at 10000 uM GlcN6P” value with glucosamine-6-phosphate [5] was less than 1e-05 s⁻¹.
As to A33C G40A C67G, in the data set with glucosamine-6-phosphate [1], the “self-cleavage kobs at 40 uM GlcN6P” value is less than 1e-05 s⁻¹.
In the case of G7C U49A, the “self-cleavage kobs at 40 uM GlcN6P” value in the data set with glucosamine-6-phosphate [1] was less than 1e-05 s⁻¹. Also, the “self-cleavage kobs at 160 uM GlcN6P” value with glucosamine-6-phosphate [2] is less than 1e-05 s⁻¹. Moreover, in the data set with glucosamine-6-phosphate [4], the “self-cleavage kobs at 2500 uM GlcN6P” value was less than 1e-05 s⁻¹. Besides, the “self-cleavage kobs at 10000 uM GlcN6P” value with glucosamine-6-phosphate [5] is less than 1e-05 s⁻¹.
Consider A6G G32U C34U, for which the “self-cleavage kobs at 40 uM GlcN6P” value with glucosamine-6-phosphate [1] was less than 1e-05 s⁻¹. Further, the “self-cleavage kobs at 640 uM GlcN6P” value with glucosamine-6-phosphate [3] was less than 1e-05 s⁻¹. Besides, the “self-cleavage kobs at 2500 uM GlcN6P” value with glucosamine-6-phosphate [4] is less than 1e-05 s⁻¹. Also, in the data set with glucosamine-6-phosphate [5], the “self-cleavage kobs at 10000 uM GlcN6P” value is less than 1e-05 s⁻¹.
For the variant A15G C34A G62U, the “self-cleavage kobs at 40 uM GlcN6P” value in the data set with glucosamine-6-phosphate [1] is less than 1e-05 s⁻¹. Further, the “self-cleavage kobs at 10000 uM GlcN6P” value with glucosamine-6-phosphate [5] is less than 1e-05 s⁻¹.

For the origin of these results see the supplement of paper PMC7125110.
